# From article PMC8247599
# Columns and labels:
# [1] = test system: aTm1 252-334 (Drosophila melanogaster); assay: EMSA
# [2] = molecular target: aTm1^252–334 (Drosophila melanogaster); assay: ITC
# [3] = molecular target: GST-tagged Khc^848–941 (Drosophila) (UniProt P17210); assay: SPR
# Chain of GST-tagged Khc^848–941 (Drosophila) (P17210 848-941): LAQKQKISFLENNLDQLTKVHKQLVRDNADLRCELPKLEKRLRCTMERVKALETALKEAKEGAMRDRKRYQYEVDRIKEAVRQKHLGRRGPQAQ
Substance,Kd [1],Kd [2],Kd [3]
UUUUUUUUUUUUUUUUUUUUUUUUU [oligo-(U25) RNA],> 10 µM,–,–
aTm1^252–334 (domain or fragment),–,10 µM,0.141 µM
